Results reported in the PETadex activity labels (doi:10.1002/cssc.202101062).

Columns and labels:
PET = assay: Proxy for plastic degradation [Weight/mass loss]; conditions: pH 8
gfPET = assay: Proxy for plastic degradation [Released monomer concentration (HPLC/LC-MS) (TPA+MHET+BHET)]

Protein	Proxy for plastic degradation (PET; 45 °C) [%]	Proxy for plastic degradation (PET; 50 °C) [%]	Proxy for plastic degradation (PET; 55 °C) [%]	Proxy for plastic degradation (PET; 60 °C) [%]	Proxy for plastic degradation (gfPET; 40 °C) [mmol/h]	Proxy for plastic degradation (gfPET; 50 °C) [mmol/h]	Proxy for plastic degradation (gfPET; 55 °C) [mmol/h]	Proxy for plastic degradation (gfPET; 60 °C) [mmol/h]	Proxy for plastic degradation (gfPET; 65 °C) [mmol/h]	Proxy for plastic degradation (gfPET; 70 °C) [mmol/h]	Proxy for plastic degradation (gfPET; 75 °C) [mmol/h]	Proxy for plastic degradation (gfPET; 80 °C) [mmol/h]	Proxy for plastic degradation (gfPET; 85 °C) [mmol/h]
unnamed (protein) MDNPYERGPDPTTQSVEAARGPYAVSQITVGGQFGSYSGGTIYYPTSTADGKFGAVAIAPGFLSFQSSVAWLGPRLASQGFVVMTIDTGTIFDQPAQRGDQLLDALDFLTQRSSVKDRIDPNRLAVAGWSMGGGGSLEAAADRPSLKAAIPMAGWNLNTNWSRLTTPVLVVGVQNDLIAPVGSHSEPFYNSIRSEKAYLELAGGSHFTVTSANTPQAKLMISWLKRFVDNDTRYEQFICPGPSRGFSVSEYRSTCPF	1	1.5	1	1	0	0.2	0.21	0.1	0	0	0	0	0
unnamed (protein) MDNPYERGPDPTTQSVEAARGPYAVSQITVGGQFGSYSGGTIYYPTSTTDGKFGAVAIAPGFLSFQSSVAWLGPRIASQGFVVMTIDTGTIFDQPAQRGDQLLDALDFLTQRSSVKDRIDPNRLAVAGWSMGGGGSLEAAADRPSLKAAIPMAGWNLNTNWSRLTTPVLVVGVQNDLIAPVAMHSEPFYNSIRSEKAYLELAGGSHFTVTSANTPQAKLMISWLKRFVDNDTRYEQFICPGPSRGFSVSEYRSTCPF	2	3	5	8	0	0.1	0.18	0.1	0	0	0	0	0
unnamed (protein) MENPYERGPDPTTQSVEAARGPYAVSQITVGGQFGSYSGGTIYYPTSTADGKFGAVAIAPGFLSFQSSVAWLGPRIASQGFVVMTIDTGTIFDQPAQRGDQLLDALDFLTQRSSVKDRIDPNRLAVAGWSWGGGGSLEAAADRPSLKAAIPMAGWNLNTNWSRLTTPVLVVGVQNDLIAPVAMHSEPFYNSIRSEKAYLELAGGSHFTVTSANTPQAKLMISWLKRFVDNDTRYEQFICPGPSRGFSVSEYRSTCPY	0.5	1	0.5	0.5	0	0.1	0.13	0.05	0	0	0	0	0
unnamed (protein) MANPYERGPAPTTSSIEASRGPFAIASVTVSRSSVSGFGGGTIYYPRDTSEGTFGAVAIAPGFTADEGSMAWYGPRIASQGFVVFTIDTITRLDQPDSRGRQLLAALDYLTQRSSVRSRIDSSRLAVMGHSMGGGGSLEASVSRPSLKAAIPLTPWNLKKNWRDVRVPTLIVGAESDSIASVRTHAEPFYESIPSTTNKAYLELNNATHFAPNISNTTIAKYSISWLKRFVDNDTRYEQFLCPPPRPDRDIEEYRSTCPH	1	2.5	1	0.5	0	0.38	0.2	0.1	0.05	0.05	0.05	0.05	0.05
unnamed (protein) MANPYERGPDPTVQSIEAVRGPFSVSETNVSRLVVTGFGGGTIYYPRDTSQGTFGAVAIAPGFTASEGSMAWYGPRIASQGFVVFTIDTLTRLDQPDSRGRQLLAALDYLTQRSSVRSRIDSSRLAVMGHSMGGGGSLEASESRPSLKASIPLTPWNLKKNWRNNRVPTLIVGAENDSIASVRTHAEPFYESIPSTTNKAYLELNNATHFAPNISNTTIAKYSISWLKRFVDNDTRYEQFLCPPPRPDRDIEEYRCTCPY	2	2.5	1	0.5	0	0.2	0.22	0.19	0.1	0.08	0.06	0.05	0.05
